Read-outs that look alike come from different tables or passages of the source.
Assays:
[1] = target: T1, Drosophila CG7544, full length (Drosophila melanogaster (Fruit fly)., UniProt Q7K3B9)
[2] = target: Drosophila Myc, amino acids 1-400 (truncated Myc) (Drosophila melanogaster, strain not …, UniProt Q9W4S7)
[3] = target: T2, Drosophila CyclinE, amino acids 1-361 (truncated CyclinE) (Drosophila melanogaster (Fruit fly)., UniProt P54733); test: ELISA; colonies of the third-round sublibrary tested on a 96-well plate coated with CyclinE, blocked with 3% BSA; absorbance at 405 nm twofold over negative control wells counted as positive; details: one partner purified
T2 construct: CyclinE of Drosophila melanogaster, 709 aa, amino acids 1-361, PCR-amplified from cDNA and cloned into pET-28a-GFP-TEV; Vector pET-28a-GFP-TEV was built in the authors' laboratory; also called CycE; source: E. coli BL21 (DE3); not shown: GFP, N-terminal, cleaved

[4] = target: T1, Drosophila CG7544, full length; test: ELISA; 96-well plate coated with 1 ug/well purified antigen, blocked with 3% BSA; 1 ug purified VHH for 2 h at RT; anti-Flag antibody, HRP anti-mouse, TMB, absorbance at 450 nm; negative controls without Flag antibody or VHH; details: both partners purified

T1 sequence (Q7K3B9 whole entry, the tested form may be a part): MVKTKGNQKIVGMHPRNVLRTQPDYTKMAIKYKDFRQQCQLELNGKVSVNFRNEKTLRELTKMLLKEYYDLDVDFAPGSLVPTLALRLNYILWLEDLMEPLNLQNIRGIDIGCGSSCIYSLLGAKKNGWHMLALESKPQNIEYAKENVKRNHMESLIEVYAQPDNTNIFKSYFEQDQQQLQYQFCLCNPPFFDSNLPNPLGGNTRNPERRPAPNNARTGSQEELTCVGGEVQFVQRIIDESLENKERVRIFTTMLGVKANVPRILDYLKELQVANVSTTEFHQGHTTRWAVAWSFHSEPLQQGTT
Drosophila Myc, amino acids 1-400 (truncated Myc), sequence (Q9W4S7 1-400): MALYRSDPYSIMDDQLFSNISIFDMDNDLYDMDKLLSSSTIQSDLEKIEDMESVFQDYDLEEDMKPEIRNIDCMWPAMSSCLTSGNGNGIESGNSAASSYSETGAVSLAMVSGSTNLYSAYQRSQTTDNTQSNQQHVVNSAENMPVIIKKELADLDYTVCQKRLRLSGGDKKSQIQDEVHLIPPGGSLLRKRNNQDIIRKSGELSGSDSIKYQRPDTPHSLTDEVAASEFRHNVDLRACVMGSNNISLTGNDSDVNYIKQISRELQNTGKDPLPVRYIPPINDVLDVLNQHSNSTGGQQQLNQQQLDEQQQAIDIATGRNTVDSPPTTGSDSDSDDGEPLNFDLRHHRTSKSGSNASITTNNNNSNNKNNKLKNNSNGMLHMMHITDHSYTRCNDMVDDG
T2 sequence (P54733 1-361): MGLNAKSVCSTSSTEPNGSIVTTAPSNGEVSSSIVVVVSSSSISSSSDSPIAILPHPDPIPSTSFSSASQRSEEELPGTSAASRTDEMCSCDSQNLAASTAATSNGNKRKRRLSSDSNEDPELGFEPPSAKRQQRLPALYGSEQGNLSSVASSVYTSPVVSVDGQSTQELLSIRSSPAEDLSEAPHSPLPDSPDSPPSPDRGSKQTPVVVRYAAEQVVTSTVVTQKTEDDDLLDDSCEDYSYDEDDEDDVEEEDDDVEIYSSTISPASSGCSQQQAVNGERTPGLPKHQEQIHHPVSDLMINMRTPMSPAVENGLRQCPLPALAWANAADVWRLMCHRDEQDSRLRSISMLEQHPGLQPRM

B1: C4 (VHH)
VHH: DVQLQESGGGLVQPGGSLRLSCAASGFTFDSNAFGWFRQAPGKEREGVSCISARDSTTFYADAVKGRFTVSRDSAKNTVYLEMDSLKPEDTAVYYCATLYRATAQAMCAMSTLLGYWGQGTQVTVSS
Kd [1]: 10.5 µM

B2: C8 (VHH)
VHH: DVQLQESGGGLVQAGGSLRLSCAASGLTSSYYAIGWFRQAPGKDSEGVSCLDTTGNRINLSNSAKGRFTISRDNAKNTVYLQMNNLKPEDTAIYYCTVVLNSLCDSRWIGAFGSWGQGTQVTVSS
binding result [1]: binds

B3: C9 (VHH)
VHH: DVQLQESGGTLVQPGGSLRLSCKASGFPFSDYHMSWVRQAPGKRPEWLSVITTSGDWTHYADSVKGRFAISRDNAKSTLYLQMNSLKPDDTAVYYCARGHYIILGQGTQVTVSS
binding result [2]: binds

B4: B12 (VHH)
VHH: DVQLQESGGGLVQPGGSLRLSCAASGFTFEAYTMSWVRQAPGKGLEWVSAISQGGATTAYADSVKGRFTISRDNAKSTLYLQMNNLKPEDTAVYYCAKWVFTPSVLGQGTQVTVSS
binding result [2]: binds

B5: N1, VHH of a colony from the third-round sublibrary of CyclinE (VHH)
VHH: DVQLQESGGGLVQAGGSLRLSCAASGGTFSRYSMGWFRQAPGKEREFVSAIGWSGYSTRYADSVKGRFTISRDNAKNTVYLQMNSLKPEDTAVYYCNAIVGVFIKRQYWGQGTQVTVSS
notes: The colony ELISA follows Fang et al., 2020; source: randomly selected colony from the third-round sublibrary of CyclinE (vhh in phage display vector pADL-10b), not purified
binding result [3]: binds

B6: C3, nanobody against CG7544 (Flag-Nb-His) (VHH)
VHH: DVQLQESGGGLVQAGGSLRLSCAASGNTLSTYGMGWFRQAPGKEREFVALINWGGTANYEDSVKGRFTISRDNVQNTMYLQMNNLKPEDTAVYYCFLGTYWGQGTWSPSPA
notes: not shown: Flag, N-terminal, kept
binding result [4]: binds

Reference: article PMC10289234, “Construction of an alpaca immune antibody library for the selection of nanobodies against Drosophila melanogaster proteins” (Frontiers in Bioengineering and Biotechnology, 2023)
